Data as given in paper PMC6021247.

Columns and labels:
[1] = molecular target: rabbit APOBEC3A fused to Cherry (rA3A-Cherry) (rabbit); experiment: FRET or BRET; flow cytometry-based FRET (FRET-FACS); HEK-293T cells 48 hours after co-transfection of a Cherry-fusion and a GFP-fusion plasmid; percentage of FRET+ cells gated on Cherry+ and GFP+ cells
[2] = molecular target: rabbit TRIB3 pseudokinase fused to GFP (rTRIB3-GFP) (rabbit); experiment: as above

Substance: rabbit APOBEC3A fused to Cherry (rA3A-Cherry) (enzyme)
- percentage of fluorescent cells in the FRET channel [1]: 19%
- percentage of fluorescent cells in the FRET channel [2]: 11%
